Molecular target: ETS1:RUNX1 (Homo sapiens, UniProt P14921;Q01196 full;full)
Experiment: gcPBM; 1 nM ETS1 + 25 nM RUNX1, anti-ETS1 signal, normalised
Settings: tags: N-terminal GST (pDEST15), kept (PMC6008103); copies: 1;1; label: surface-attached array probe

Sequence of ETS1:RUNX1 (P14921 whole entry, chain 1 of 2): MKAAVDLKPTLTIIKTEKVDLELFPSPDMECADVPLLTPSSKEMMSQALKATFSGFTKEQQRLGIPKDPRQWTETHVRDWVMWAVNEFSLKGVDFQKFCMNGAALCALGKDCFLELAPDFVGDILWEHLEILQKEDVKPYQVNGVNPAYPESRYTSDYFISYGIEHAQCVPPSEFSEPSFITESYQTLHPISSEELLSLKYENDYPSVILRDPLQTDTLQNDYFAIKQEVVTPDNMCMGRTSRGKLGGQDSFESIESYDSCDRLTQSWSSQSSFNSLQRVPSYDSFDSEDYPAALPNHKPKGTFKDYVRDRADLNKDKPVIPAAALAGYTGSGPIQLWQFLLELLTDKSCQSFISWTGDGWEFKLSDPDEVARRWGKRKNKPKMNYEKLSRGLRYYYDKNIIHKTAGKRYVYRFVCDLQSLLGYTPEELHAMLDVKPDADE
Sequence of ETS1:RUNX1 (Q01196 whole entry, chain 2 of 2): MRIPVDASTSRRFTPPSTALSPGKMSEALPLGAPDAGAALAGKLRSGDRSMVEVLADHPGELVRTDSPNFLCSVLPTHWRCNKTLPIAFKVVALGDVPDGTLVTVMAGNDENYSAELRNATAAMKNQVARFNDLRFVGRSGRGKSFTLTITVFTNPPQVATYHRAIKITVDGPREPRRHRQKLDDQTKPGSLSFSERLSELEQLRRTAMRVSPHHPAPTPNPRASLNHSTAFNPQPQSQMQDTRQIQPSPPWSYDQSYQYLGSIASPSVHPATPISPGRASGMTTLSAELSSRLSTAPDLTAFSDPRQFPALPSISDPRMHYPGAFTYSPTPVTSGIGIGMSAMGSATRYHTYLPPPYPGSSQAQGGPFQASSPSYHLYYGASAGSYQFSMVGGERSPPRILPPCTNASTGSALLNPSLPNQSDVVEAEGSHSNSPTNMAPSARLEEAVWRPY

Binder | binding signal
Table S2 A row 777 (dsDNA) DNA 1: CAGGAGCAGTGTAGAGGAAGTGGTTTCCATCACGGA DNA 2: TCCGTGATGGAAACCACTTCCTCTACACTGCTCCTG | 4870 PBM fluorescence, median of replicate spots
Table S2 A row 1339 (dsDNA) DNA 1: GTAGGGAAGACGGGATGTGGGTTTTCAGCCGTGGCC DNA 2: GGCCACGGCTGAAAACCCACATCCCGTCTTCCCTAC | 4760 PBM fluorescence, median of replicate spots
Table S2 A row 1407 (dsDNA) DNA 1: TGTGTATGAGAACGGATATAGGTGGTTTTATAAGGA DNA 2: TCCTTATAAAACCACCTATATCCGTTCTCATACACA | 3120 PBM fluorescence, median of replicate spots
Table S2 A row 1400 (dsDNA) DNA 1: AGCTGCATTTCCGGGCAGGCAATGAAACCACAGAGT DNA 2: ACTCTGTGGTTTCATTGCCTGCCCGGAAATGCAGCT | 3930 PBM fluorescence, median of replicate spots
Table S2 A row 1756 (dsDNA) DNA 1: GCCAACAGGAAGCTGGAAGCCAACCGCACTGTGTGC DNA 2: GCACACAGTGCGGTTGGCTTCCAGCTTCCTGTTGGC | 3630 PBM fluorescence, median of replicate spots
Table S2 A row 1154 (dsDNA) DNA 1: GGCCTCGGCCACATCCGGGTTCCACCGCAGATTCGG DNA 2: CCGAATCTGCGGTGGAACCCGGATGTGGCCGAGGCC | 5630 PBM fluorescence, median of replicate spots
Table S2 A row 34 (dsDNA) DNA 1: GGAGGTGGGGAGGAAGTTCTGAAACCACACACATTT DNA 2: AAATGTGTGTGGTTTCAGAACTTCCTCCCCACCTCC | 4160 PBM fluorescence, median of replicate spots
Table S2 A row 585 (dsDNA) DNA 1: TGTATGAAAAAAACAGGAAACCACAGAGAACTGAGG DNA 2: CCTCAGTTCTCTGTGGTTTCCTGTTTTTTTCATACA | 4240 PBM fluorescence, median of replicate spots
Table S2 A row 386 (dsDNA) DNA 1: AACTGGGCGGAAAGAACGGCTAACCGCAAGCTGCCG DNA 2: CGGCAGCTTGCGGTTAGCCGTTCTTTCCGCCCAGTT | 3490 PBM fluorescence, median of replicate spots
Table S2 A row 1530 (dsDNA) DNA 1: CCAGGCGGAAGCGGCCGGGAGTAGCGCTGCGGTTGG DNA 2: CCAACCGCAGCGCTACTCCCGGCCGCTTCCGCCTGG | 5640 PBM fluorescence, median of replicate spots
Table S2 A row 426 (dsDNA) DNA 1: GCCGGAAGCCACGCAGGGCCACGTCTGCGGTTCTGA DNA 2: TCAGAACCGCAGACGTGGCCCTGCGTGGCTTCCGGC | 4460 PBM fluorescence, median of replicate spots
Table S2 A row 274 (dsDNA) DNA 1: ATGCCTTCTTCCAGAGGATGTGGTCGCTACTAGTGG DNA 2: CCACTAGTAGCGACCACATCCTCTGGAAGAAGGCAT | 4270 PBM fluorescence, median of replicate spots
Table S2 A row 163 (dsDNA) DNA 1: GATTGTTATGTCCGGAAACCGCTTATCAGAGCCCTG DNA 2: CAGGGCTCTGATAAGCGGTTTCCGGACATAACAATC | 5000 PBM fluorescence, median of replicate spots
Table S2 A row 1272 (dsDNA) DNA 1: TTGAATATGAAAGGAAGTGGTTAGGTGATGTGTTCT DNA 2: AGAACACATCACCTAACCACTTCCTTTCATATTCAA | 5150 PBM fluorescence, median of replicate spots
Table S2 A row 877 (dsDNA) DNA 1: GAGTGGGCGGAAATCCGTGCCTGGCAGACCACAAAG DNA 2: CTTTGTGGTCTGCCAGGCACGGATTTCCGCCCACTC | 4940 PBM fluorescence, median of replicate spots
Table S2 A row 1325 (dsDNA) DNA 1: GGACCGGTGTCTGGCGGATGCGGTCGTGAAGATAGG DNA 2: CCTATCTTCACGACCGCATCCGCCAGACACCGGTCC | 4590 PBM fluorescence, median of replicate spots
Table S2 A row 414 (dsDNA) DNA 1: CGCCGAACTTCCGGCAGTAAATTCCGTGGTTTCCCT DNA 2: AGGGAAACCACGGAATTTACTGCCGGAAGTTCGGCG | 5300 PBM fluorescence, median of replicate spots
Table S2 A row 1363 (dsDNA) DNA 1: ATGAGCTATTTCCTGCCTTGTGGTCAGAGCCAGACT DNA 2: AGTCTGGCTCTGACCACAAGGCAGGAAATAGCTCAT | 5600 PBM fluorescence, median of replicate spots
Table S2 A row 1553 (dsDNA) DNA 1: GAAGGAAGTGGAGACAGTAAGGGGAAACCACAAACC DNA 2: GGTTTGTGGTTTCCCCTTACTGTCTCCACTTCCTTC | 3570 PBM fluorescence, median of replicate spots
Table S2 A row 1268 (dsDNA) DNA 1: GAATGGCGGATGTGGCTGGGGAGAGAAAGCCGCAGA DNA 2: TCTGCGGCTTTCTCTCCCCAGCCACATCCGCCATTC | 4780 PBM fluorescence, median of replicate spots
Table S2 A row 442 (dsDNA) DNA 1: GGAAAAGGAAGTGGCTTTGACTTGCGGGCAGGGAGA DNA 2: TCTCCCTGCCCGCAAGTCAAAGCCACTTCCTTTTCC | 3710 PBM fluorescence, median of replicate spots
Table S2 A row 1216 (dsDNA) DNA 1: CCCGGCCACTTCCGCCTATTGCGGGCGTCGGCTAGG DNA 2: CCTAGCCGACGCCCGCAATAGGCGGAAGTGGCCGGG | 3350 PBM fluorescence, median of replicate spots

Binder | binding signal
Table S2 A row 1723 (dsDNA) DNA 1: CAACCCGGAAGCACTAACGGAGAAACCGCAACTCGG DNA 2: CCGAGTTGCGGTTTCTCCGTTAGTGCTTCCGGGTTG | 5540 PBM fluorescence, median of replicate spots
Table S2 A row 485 (dsDNA) DNA 1: TGAAGTACTAGTCAAGGATGTGGTTTTACATAGCAG DNA 2: CTGCTATGTAAAACCACATCCTTGACTAGTACTTCA | 4920 PBM fluorescence, median of replicate spots
Table S2 A row 1092 (dsDNA) DNA 1: CTCACAGAGCAAGTAGGATGTGGTTTCCAGGGGCTG DNA 2: CAGCCCCTGGAAACCACATCCTACTTGCTCTGTGAG | 5400 PBM fluorescence, median of replicate spots
Table S2 A row 1293 (dsDNA) DNA 1: AGGTCGCCCTCCGGATGCGGTCCCCACACCGCCTGC DNA 2: GCAGGCGGTGTGGGGACCGCATCCGGAGGGCGACCT | 3170 PBM fluorescence, median of replicate spots
Table S2 A row 813 (dsDNA) DNA 1: AAGTTGATTTCCGGGTAGTCTGTGGTTTCCTAATCA DNA 2: TGATTAGGAAACCACAGACTACCCGGAAATCAACTT | 4110 PBM fluorescence, median of replicate spots
Table S2 A row 1378 (dsDNA) DNA 1: CAAGAGAAAGGAAGTGGAAGCTCTTGTGGTCTGGAA DNA 2: TTCCAGACCACAAGAGCTTCCACTTCCTTTCTCTTG | 5370 PBM fluorescence, median of replicate spots
Table S2 A row 995 (dsDNA) DNA 1: GCGCCCTCCAGGAAACGCCGCGGTTTACTGTCTGCC DNA 2: GGCAGACAGTAAACCGCGGCGTTTCCTGGAGGGCGC | 4310 PBM fluorescence, median of replicate spots
Table S2 A row 233 (dsDNA) DNA 1: TCCTATATACTTCCGTTTGCCTCGCGGTTTCTTTCT DNA 2: AGAAAGAAACCGCGAGGCAAACGGAAGTATATAGGA | 4400 PBM fluorescence, median of replicate spots
Table S2 A row 238 (dsDNA) DNA 1: GCGCGGACAGAGAAAGGATGTGGTATAGCAGAAAGT DNA 2: ACTTTCTGCTATACCACATCCTTTCTCTGTCCGCGC | 4350 PBM fluorescence, median of replicate spots
Table S2 A row 1300 (dsDNA) DNA 1: CAAGTAATCTGCTCAGGAAGTGGTTTGAATAGAGGA DNA 2: TCCTCTATTCAAACCACTTCCTGAGCAGATTACTTG | 4710 PBM fluorescence, median of replicate spots
Table S2 A row 145 (dsDNA) DNA 1: TGGGGAACGCTGCGGATGCTGCGGTAAACCATGCGA DNA 2: TCGCATGGTTTACCGCAGCATCCGCAGCGTTCCCCA | 5120 PBM fluorescence, median of replicate spots
Table S2 A row 552 (dsDNA) DNA 1: AACCATTACAGGATGTGAGATTCAAACCACTAACAG DNA 2: CTGTTAGTGGTTTGAATCTCACATCCTGTAATGGTT | 4190 PBM fluorescence, median of replicate spots
Table S2 A row 122 (dsDNA) DNA 1: GAGAAACAGGAAGAGGGGTGGTGGTTACGGAACACG DNA 2: CGTGTTCCGTAACCACCACCCCTCTTCCTGTTTCTC | 4040 PBM fluorescence, median of replicate spots
Table S2 A row 505 (dsDNA) DNA 1: ACCCAGTAGGGGCCAGGATGTGGTGAAAAGAGAATT DNA 2: AATTCTCTTTTCACCACATCCTGGCCCCTACTGGGT | 3620 PBM fluorescence, median of replicate spots
Table S2 A row 1390 (dsDNA) DNA 1: CTGTGACACGTGCGGAAGCTGTGGTAAGTGCATCCA DNA 2: TGGATGCACTTACCACAGCTTCCGCACGTGTCACAG | 3240 PBM fluorescence, median of replicate spots
Table S2 A row 189 (dsDNA) DNA 1: TGGCAGAGCACATCCTGTGCGGTTTTCAGTTTTGCT DNA 2: AGCAAAACTGAAAACCGCACAGGATGTGCTCTGCCA | 3840 PBM fluorescence, median of replicate spots
Table S2 A row 717 (dsDNA) DNA 1: GGACAGGAAGTTCCTGCAGCTTCTACCACAAACCTA DNA 2: TAGGTTTGTGGTAGAAGCTGCAGGAACTTCCTGTCC | 4990 PBM fluorescence, median of replicate spots
Table S2 A row 860 (dsDNA) DNA 1: CTGAGCCGGATGTTACTGGTTAGTGGTTTTCTTTAT DNA 2: ATAAAGAAAACCACTAACCAGTAACATCCGGCTCAG | 5210 PBM fluorescence, median of replicate spots
Table S2 A row 1073 (dsDNA) DNA 1: ACCTTGCCTAGAGGAAGTGGTTTTTCGAATCTGAGT DNA 2: ACTCAGATTCGAAAAACCACTTCCTCTAGGCAAGGT | 4490 PBM fluorescence, median of replicate spots
Table S2 A row 18 (dsDNA) DNA 1: GAGGCAGGCGGATGTCAGTGTGGTTAGAGCACAGTG DNA 2: CACTGTGCTCTAACCACACTGACATCCGCCTGCCTC | 3320 PBM fluorescence, median of replicate spots
Table S2 A row 1124 (dsDNA) DNA 1: ATCTTTTGATGAGGATGTGGTTTCCAGGCAGGTGCT DNA 2: AGCACCTGCCTGGAAACCACATCCTCATCAAAAGAT | 4440 PBM fluorescence, median of replicate spots
Table S2 A row 1035 (dsDNA) DNA 1: AGTTGGTTCCTTCCGGTGGGTTTGTGGGTTTGGGGT DNA 2: ACCCCAAACCCACAAACCCACCGGAAGGAACCAACT | 5250 PBM fluorescence, median of replicate spots

From publication PMC10681739, “High-throughput data and modeling reveal insights into the mechanisms of cooperative DNA-binding by transcription factor proteins”
